In patent US20030148511A1:

Molecular target: human granzyme B (human) (UniProt P10144)
Experiment: cell-based or functional assay

Chain of UniProt P10144 (P10144 21-247 limits assumed): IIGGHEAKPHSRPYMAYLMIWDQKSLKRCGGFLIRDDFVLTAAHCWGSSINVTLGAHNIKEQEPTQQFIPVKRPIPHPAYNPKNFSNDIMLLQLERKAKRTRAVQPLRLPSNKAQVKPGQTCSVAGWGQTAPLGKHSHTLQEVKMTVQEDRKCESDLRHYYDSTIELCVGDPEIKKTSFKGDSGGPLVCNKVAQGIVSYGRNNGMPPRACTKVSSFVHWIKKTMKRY

An apoptosis of Jurkat cells (% of cells YOPRO-1-positive) after perforin and human granzyme B (% of cells YOPRO-1-positive) of 27 was found for “serine protease inhibitor 6 (SPI6), mouse serpin” in this work.
